Data reported in paper PMC6688830, “A Ubiquitin-Binding Domain that Binds a Structural Fold Distinct from that of Ubiquitin” (Structure(London, England:1993), 2019).

Assays:
Conditions in all cases: both partners purified
[1] = target: T1, KAP1 S33-K434 L376A (human, UniProt Q13263 33-434, L376A); assay: co-IP; purified SMARCAD1 fragments (FLAG-CUE1,2, FLAG-CUE1) and KAP1 RBCC, 9.6μg each in 240μL, 4°C 1 hour; anti-FLAG M2 affinity gel 3 hours
T1 construct: KAP1 (TRIM28), human, UniProt Q13263, residues S33-K434 (RBCC domain); source: E. coli BL-21 CodonPlus (DE3)-RP, purified (Ni-NTA, Ulp1, Mono Q)

[2] = target: T2, KAP1 S33-K434 I379A (human, UniProt Q13263 33-434, I379A); assay: as above
T2 construct: KAP1 (TRIM28), human, UniProt Q13263, residues S33-K434 (RBCC domain); source: E. coli BL-21 CodonPlus (DE3)-RP, purified (Ni-NTA, Ulp1, Mono Q)

[3] = target: T3, KAP1 S33-K434 V380A (human, UniProt Q13263 33-434, V380A); assay: as above
T3 construct: KAP1 (TRIM28), human, UniProt Q13263, residues S33-K434 (RBCC domain); source: E. coli BL-21 CodonPlus (DE3)-RP, purified (Ni-NTA, Ulp1, Mono Q)

[4] = target: T4, Ubiquitin (UniProt P0CG48 1-76); assay: ITC; MicroCal ITC200, 10°C; 120 μM SMARCAD1 CUE1 or CUE1,2 in the cell, 9.8 mM mono-Ub in the syringe; 10 mM Tris-HCl pH 7.9, 100 mM NaCl, 5 mM β-ME; One set of sites model
T4 construct: ubiquitin, monomeric, the cut product of a ubiquitin precursor; also called mono-Ub; monomeric ubiquitin; source: bought: Boston Biochem (purified recombinant)

[5] = target: T5, KAP1 S33-K434 (human, UniProt Q13263 33-434); assay: ITC; MicroCal ITC200, 20°C; KAP1 RBCC (9-18 μM) in the cell, SMARCAD1 CUE1 or CUE1,2 (90-300 μM) in the syringe; 10 mM Tris-HCl pH 7.9, 100 mM NaCl, 5 mM β-ME; One set of sites model
T5 construct: KAP1 (TRIM28), human, UniProt Q13263, residues S33-K434 (RBCC domain); The crystal structures of shorter RBCC constructs show an antiparallel homodimer; also called KAP1 RBCC (S33-K434); KAP1 RBCC; source: E. coli BL-21 CodonPlus (DE3)-RP, purified (Ni-NTA, Ulp1, Mono Q)
T5 sequence (Q13263 33-434): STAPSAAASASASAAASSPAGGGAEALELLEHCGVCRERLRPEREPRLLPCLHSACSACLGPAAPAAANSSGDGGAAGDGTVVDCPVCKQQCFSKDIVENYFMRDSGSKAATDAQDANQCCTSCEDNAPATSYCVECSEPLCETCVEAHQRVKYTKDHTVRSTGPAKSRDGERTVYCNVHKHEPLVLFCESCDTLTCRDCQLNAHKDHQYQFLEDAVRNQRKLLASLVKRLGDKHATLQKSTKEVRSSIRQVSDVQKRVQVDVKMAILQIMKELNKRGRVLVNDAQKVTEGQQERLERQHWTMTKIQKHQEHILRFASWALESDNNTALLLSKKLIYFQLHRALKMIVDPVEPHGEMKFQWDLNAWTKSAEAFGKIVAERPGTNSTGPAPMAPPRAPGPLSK

T2 sequence (Q13263 33-434 I379A): as the sequence (Q13263 33-434) above, with I347A counted along it
T1 sequence (Q13263 33-434 L376A): as the sequence (Q13263 33-434) above, with L344A counted along it
T3 sequence (Q13263 33-434 V380A): as the sequence (Q13263 33-434) above, with V348A counted along it

binding result [1]: binds
binding result [2]: binds
binding result [3]: binds
Kd [4]: ~389 µM
Kd [5]: ~0.21 µM
B1: FLAG-CUE1,2 (WT) (domain or fragment, human, UniProt Q9H4L7 95-347, looked up)
chain: SSDSEDVVSPNCSNTVQEKTFNKDTVIIVSEPSEDEESQGLPTMARRNDDISELEDLSELEDLKDAKLQTLKELFPQRSDNDLLKLIESTSTMDGAIAAALLMFGDAGGGPRKRKLSSSSEPYEEDEFNDDQSIKKTRLDHGEESNESAESSSNWEKQESIVLKLQKEFPNFDKQELREVLKEHEWMYTEALESLKVFAEDQDMQYVSQSEVPNGKEVSSRSQNYPKNATKTKLKQKFSMKAQNGFNKKRKKN
notes: SMARCAD1, human, UniProt Q9H4L7, residues S95-N347 (both CUE domains); also called SMARCAD1 CUE1,2 (S95-N347); wild-type CUE1,2; source: E. coli BL-21 CodonPlus (DE3)-RIL, purified (Ni-NTA, Ulp1, Mono Q if required)
